Bridges are numbered along the chain shown (N, C = ends). Primed or numbered codes have the meaning given here. [ ]: non-standard residue; d: D form. 8x polyethylene glycol‑amino = O-(8x polyethylene glycol-amino)-tyrosine, SITE 45; 9x polyethylene glycol‑azido = O-(9x polyethylene glycol-azido)-tyrosine, SITE 42; Ygp = O-(8x polyethylene glycol-amino)-tyrosine (Tyr, amino-capped PEG8); Yn3 = O-(9x polyethylene glycol-azido)-tyrosine (Tyr, azide-capped PEG9); Ygp″ = O-(8x polyethylene glycol-amino)-tyrosine; Yn3″ = O-(9x polyethylene glycol-azido)-tyrosine; PEG4′ = 4x polyethylene glycol; hSer = N[C@@H](CCO)C(=O)O; Nle = CCCC[C@H](N)C(=O)O
T1: IL-2 receptor βγ complex (human, UniProt P14784 27-551; P31785 23-369)
T1 sequence (looked up) 1: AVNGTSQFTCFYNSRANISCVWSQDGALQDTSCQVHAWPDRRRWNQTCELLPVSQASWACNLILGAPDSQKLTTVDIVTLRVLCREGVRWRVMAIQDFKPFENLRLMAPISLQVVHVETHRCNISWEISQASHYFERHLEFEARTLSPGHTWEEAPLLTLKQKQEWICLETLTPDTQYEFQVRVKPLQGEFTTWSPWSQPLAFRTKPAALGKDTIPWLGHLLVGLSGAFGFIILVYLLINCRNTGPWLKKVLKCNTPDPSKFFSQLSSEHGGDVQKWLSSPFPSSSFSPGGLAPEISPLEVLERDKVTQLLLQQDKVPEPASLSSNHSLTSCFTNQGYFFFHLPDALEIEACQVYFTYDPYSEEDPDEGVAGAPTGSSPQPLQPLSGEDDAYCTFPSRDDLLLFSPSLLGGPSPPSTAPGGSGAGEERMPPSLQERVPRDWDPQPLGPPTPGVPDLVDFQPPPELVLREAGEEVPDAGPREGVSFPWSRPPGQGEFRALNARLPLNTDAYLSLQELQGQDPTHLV
T1 sequence (looked up) 2: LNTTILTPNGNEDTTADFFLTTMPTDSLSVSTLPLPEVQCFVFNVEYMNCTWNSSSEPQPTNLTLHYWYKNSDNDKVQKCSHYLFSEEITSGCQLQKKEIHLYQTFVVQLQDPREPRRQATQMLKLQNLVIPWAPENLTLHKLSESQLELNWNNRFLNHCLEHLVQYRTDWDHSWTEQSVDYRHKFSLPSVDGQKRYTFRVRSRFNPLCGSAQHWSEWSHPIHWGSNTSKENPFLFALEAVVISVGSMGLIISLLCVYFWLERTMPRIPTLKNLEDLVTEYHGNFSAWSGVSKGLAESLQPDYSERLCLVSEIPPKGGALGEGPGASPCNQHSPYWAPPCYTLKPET


Molecular target: T1, IL-2 receptor βγ complex
Experiment: cell-based or functional assay

Binder | Average EC50, pSTAT5 Assay in NK cells [nM]
CMP-318 (ligand, lactam N-32; ends not checked) SGRVANLVGAPTSSSTKKTQLQLEHLLLDLQEILNGINNYKNPKLTR[Nle]L[hSer][Yn3]KF[Ygp][Nle]PKKATELKHLQCLEEELKPLEEVL[hSer]LAQSKNFHLRPRDLISNINVIVLELKGSETTF[hSer]CEYADETATIVEFLNRWITFSQSIISTLT | 37.4
CMP-329, Matriptase cleaved molecule (ligand, ends and bridges not checked; also: after matriptase cleavage, remnants of the Lys9–Glu23 peptide linker not given here) APTSSSTKKTQLQLEHLLLDLQEILNGINNYKNPKLTR[Nle]L[hSer][Yn3″]KF[Ygp″][Nle]PKKATELKHLQCLEEELKPLEEVL[hSer]LAQSKNFHLRPRDLISNINVIVLELKGSETTF[hSer]CEYADETATIVEFLNRWITFSQSIISTLT | 14.4
CMP-330, MMP2 cleaved molecule (ligand, not fully specified; also: K9 and E23 side chains attached to another sequence, MMP2-cleaved product, remnants not given here) APTSSSTKKTQLQLEHLLLDLQEILNGINNYKNPKLTR[Nle]L[hSer]Y(9x polyethylene glycol‑azido)KFY(8x polyethylene glycol‑amino)[Nle]PKKATELKHLQCLEEELKPLEEVL[hSer]LAQSKNFHLRPRDLISNINVIVLELKGSETTF[hSer]CEYADETATIVEFLNRWITFSQSIISTLT | 6.12
CMP-317 (ligand, bridge N-31; not fully specified (bridges); ends not checked) GSGSGSG[PEG4′]APTSSSTKKTQLQLEHLLLDLQEILNGINNYKNPKLTR[Nle]L[hSer][Yn3]KF[Ygp][Nle]PKKATELKHLQCLEEELKPLEEVL[hSer]LAQSKNFHLRPRDLISNINVIVLELKGSETTF[hSer]CEYADETATIVEFLNRWITFSQSIISTLT | 34.1
CMP-317, MMP2 cleaved molecule (ligand, also: A1 attached to another sequence via 4x polyethylene glycol, E23 side chain attached to another sequence, m119 after MMP2 cleavage, product not given here as a sequence) APTSSSTKKTQLQLEHLLLDLQEILNGINNYKNPKLTR[Nle]L[hSer]Y(9x polyethylene glycol‑azido)KFY(8x polyethylene glycol‑amino)[Nle]PKKATELKHLQCLEEELKPLEEVL[hSer]LAQSKNFHLRPRDLISNINVIVLELKGSETTF[hSer]CEYADETATIVEFLNRWITFSQSIISTLT | 12.2
CMP-330, uPa cleaved molecule (ligand, not fully specified; also: Lys9 side chain attached to another sequence, Glu23 side chain attached to another sequence) APTSSSTKKTQLQLEHLLLDLQEILNGINNYKNPKLTR[Nle]L[hSer]Y(9x polyethylene glycol‑azido)KFY(8x polyethylene glycol‑amino)[Nle]PKKATELKHLQCLEEELKPLEEVL[hSer]LAQSKNFHLRPRDLISNINVIVLELKGSETTF[hSer]CEYADETATIVEFLNRWITFSQSIISTLT | 27
CMP-329, MMP2 cleaved molecule (ligand, ends and bridges not checked; also: after MMP2 cleavage, remnants of the Lys9–Glu23 peptide linker not given here) APTSSSTKKTQLQLEHLLLDLQEILNGINNYKNPKLTR[Nle]L[hSer][Yn3″]KF[Ygp″][Nle]PKKATELKHLQCLEEELKPLEEVL[hSer]LAQSKNFHLRPRDLISNINVIVLELKGSETTF[hSer]CEYADETATIVEFLNRWITFSQSIISTLT | 0.687

Next, values leading:

Average EC50, pSTAT5 Assay in NK cells [nM] | Binder
2.96 | CMP-328, uPa cleaved molecule (ligand, ends and bridges not checked; also: after uPa cleavage, remnants of the Lys9–Glu23 peptide linker not given here) APTSSSTKKTQLQLEHLLLDLQEILNGINNYKNPKLTR[Nle]L[hSer][Yn3″]KF[Ygp″][Nle]PKKATELKHLQCLEEELKPLEEVL[hSer]LAQSKNFHLRPRDLISNINVIVLELKGSETTF[hSer]CEYADETATIVEFLNRWITFSQSIISTLT
4.28 | CMP-328, Matriptase cleaved molecule (ligand, ends and bridges not checked; also: after matriptase cleavage, remnants of the Lys9–Glu23 peptide linker not given here) APTSSSTKKTQLQLEHLLLDLQEILNGINNYKNPKLTR[Nle]L[hSer][Yn3″]KF[Ygp″][Nle]PKKATELKHLQCLEEELKPLEEVL[hSer]LAQSKNFHLRPRDLISNINVIVLELKGSETTF[hSer]CEYADETATIVEFLNRWITFSQSIISTLT
20.6 | CMP-329 (ligand, bridge 9-23; not fully specified (bridges); ends not checked) APTSSSTKKTQLQLEHLLLDLQEILNGINNYKNPKLTR[Nle]L[hSer][Yn3″]KF[Ygp″][Nle]PKKATELKHLQCLEEELKPLEEVL[hSer]LAQSKNFHLRPRDLISNINVIVLELKGSETTF[hSer]CEYADETATIVEFLNRWITFSQSIISTLT
18.1 | CMP-329, uPa cleaved molecule (ligand, not fully specified; also: K9 and E23 side chains attached to another sequence, uPa-cleaved product, remnants not given here) APTSSSTKKTQLQLEHLLLDLQEILNGINNYKNPKLTR[Nle]L[hSer]Y(9x polyethylene glycol‑azido)KFY(8x polyethylene glycol‑amino)[Nle]PKKATELKHLQCLEEELKPLEEVL[hSer]LAQSKNFHLRPRDLISNINVIVLELKGSETTF[hSer]CEYADETATIVEFLNRWITFSQSIISTLT
16.4 | CMP-330, Matriptase cleaved molecule (ligand, not fully specified; also: K9 and E23 side chains attached to another sequence, matriptase-cleaved product, remnants not given here) APTSSSTKKTQLQLEHLLLDLQEILNGINNYKNPKLTR[Nle]L[hSer]Y(9x polyethylene glycol‑azido)KFY(8x polyethylene glycol‑amino)[Nle]PKKATELKHLQCLEEELKPLEEVL[hSer]LAQSKNFHLRPRDLISNINVIVLELKGSETTF[hSer]CEYADETATIVEFLNRWITFSQSIISTLT
20.3 | CMP-330 (ligand, bridge 9-23; not fully specified (bridges)) APTSSSTKKTQLQLEHLLLDLQEILNGINNYKNPKLTR[Nle]L[hSer]Y(9x polyethylene glycol‑azido)KFY(8x polyethylene glycol‑amino)[Nle]PKKATELKHLQCLEEELKPLEEVL[hSer]LAQSKNFHLRPRDLISNINVIVLELKGSETTF[hSer]CEYADETATIVEFLNRWITFSQSIISTLT
